The source of these data is the domain aggregation screens of Martell et al. (2025).

This data set can be described thus: soluble fraction after stress (log2 fold change); higher = more stays soluble; pooled small domains, quantitative proteomics. The following applies: stress: 50 degC. The method, boiled down: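 Quantitative proteomics served as the high-throughput read-out for pooled custom libraries of small protein domains. Each was stressed at 50°C. Aggregation propensity is expressed as the base-two log fold change in soluble protein after stress. A higher value means a larger share of the protein remains in solution.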
Turning to “HMNPNEVQIPDLVNKTEDEAEQILKDLKLKLVVKSEEYNENIEKGKIISQDPPYQENYTIKEHSEISIVIS”, the “soluble fraction (log2)” value came to 0.42.
Consider “HMETYSGVERAAILVMYLERTLAKALLDHMNDEEVRRVGMAMASIDRVEGPDIERIVGDFVRELYEVS”, for which the “soluble fraction (log2)” value was -0.793.
Next, “HMGMTTSILDDVIGMGPKRKKALLKAFGSFGALRNATLEEIKQTHTVPEQVAEDVYAVLVQYNSKSE”: -0.233.
For the sequence “HMKSSLAKNLETLMQERQISQTRLSKISGVSQSYIFKILNDQIKKPSLDTLEKLATALDSTVAQLNH”, the “soluble fraction (log2)” value was -0.00953.
Next, “HMAVFSKKQIFDTAFALFESKGLEAITARNLGKALSSSPAPIYAHYSSITELKNELISVAKDR”: -2.25; “HMTVSADQTTADAVIKLIDAIGTVSKNSGSAISAARSGYDALTDAQKKLVTNYNKLTQAEQVFSSLS”: 0.129; “HMSFNNHYEILQVQPSADREVIEAAAKALLKKHHPDLGGRNTITSHIVQAKKVLTDTSQRADFDARLRERL”: -0.0959.
For the sequence “HMSQESIMPNLVGSTEDEAKAIAVEYGFQLNVISRVNNSQYPAGVIIDQNVDEGVRIKAGYPVGVTIS”, the “soluble fraction (log2)” value was -0.207.
With “HMSNNENSILEKLNSFSGKKIKVSHTIGSLAARLDEYPKIKMWLYKRIRENSINEQAYKYLIFIIERKVR”, the “soluble fraction (log2)” value was -1.2.
Take “HMMLVKKMLNGIMMKEITIKELADQYDVSTRTIQLKIKKLGYEWDSKESIYRYVGKESEPLDVDFSTLI”: the “soluble fraction (log2)” value was -3.29.
For “HMEEEVKVPKIKGLTEAEAKAKLKSEGLESGTARSAYSDTVEEGHIISQSIQEGTKVPKGTAVSYEVSKGK”, the “soluble fraction (log2)” value was found to be 0.17.
Next, “HMNHHEIIMKNIDTLLKEKNISISKLEKSLGISNGYISRLRNGKYNFSLDLLLKLAKKFKISIDYLLTDFD”: 0.00249.
Take “HMNIWNEWAFKKWIESDEYTGPDMTDFGHRTLVDEEFSKQYKEQMSLFKERVLTDDEFSAKYGDL”: the “soluble fraction (log2)” value was -0.66.
Then “HMESRRVTLLLPYDKAGIADTLRREAAVLSLEYGEDGVTVEAVVKPELWGLVREYVQNDNPK”, with 0.166; and “HMAQVDAVQQVLQAFPALRSGQSQHLSQVVAALRQRGILTVGTKTTAWFAQWASVFQLLPLQVPNRIRYQS”, with -0.066; and “HMIVDINDVRIDKYIADNTDYSRNLILNLIKNGDILVNDSKIKPSYKVKQGDKITINNVKTD”, with 0.227.
Next, “HMYSRQRDLILKALRENVVHPTADFIYTVLKEKEPNLSLATVYRNLNLLANEGIIRKIEGLDGVAHFDH”: -1.46; “HMDEIDYSKYSITTSNRIINIDGVQSKVELFDVSGRSIQSTMVTGKFSSRPLNAGFYIIHVDGYSVKVSV”: -0.889.
On to “HMELSAQEIGRRLRIARENADIRQDDAAQVIGMSRPTLVSIEKGVRRVRIQEIQMLARHYGVSVNALLR”, for which the “soluble fraction (log2)” value is -2.14.
Next, “HMRLPNHYGSVVKLSGKRRRPFMVRGGVYGYDDRGYPQYVIVGYTETREQGLTMLAEYNRNP”: -3.22.
Next, “HMGGKYKGVIIGHLIDKTLRYNELQKLISHATPKMLIQQLKELEADGIIQRKLYPVVPPKTEYSLTERG”: -0.754.
Next, “HMGLQRLTVSPEDAGVRIDKYLAEQLPDITRSYLQKLLKDGSVQMNGKPVKASTKTAVGAVIALTIPEP”: 0.0689; “HMYEINEIIRERRLKKGLTQAQVAKYLGVSAPAVNKWEKGTTYPDLVLLPALARLLDTDLTTLLSF”: -1.38.
As to “HMYQKERDKEISEIETFLKKITNANGTRAYSDESIADMSYVELLNLYEGITSKLTEEEIENI”, the “soluble fraction (log2)” value was determined as 0.131.
In the case of “HMDGEINPYTGREYVTNSVRMHPRRIGYVQVYSRKDHKWTDMTEWAFLGEQERKKVLLGKAYEPPVYL”, the “soluble fraction (log2)” value is -1.55.
Next, “HMGTYSKQDLLQLIGRYPDGIGKREINLAFSKGTKIRNLLNIELNELLNERLITLSQGGLYIKP”: -1.56; “HMPRPLVAPMPGLIVRVTAVVGDSVDAGQGLVVMEAMKMENELRTTTAGVVKTVHVQPGVAVEKGALLIEF”: -0.893; “HMNSNTIIFSQFLSEVDNGRVTQVQIQGNNIKGTLSNGKDFITYAPNDPNLIEKLTSKGVSISASPID”: 0.0608.
Consider “HMKHRTQMDIQQLPAIEGKGGFEYKISIIHLSTRIKYSEIHDNYNTTTIAKVYENAIERLPPF”, for which the “soluble fraction (log2)” value was -2.24.
In the case of “HMPPNRDDEHLQALRDYYAANRRIPSLQRVASLLGFSSRSAAVKLMGRLADEGFIERTADDDAWITGKRFF”, the “soluble fraction (log2)” value was -1.19.
Turning to “HMLAAGTPLTVVTESSNLNIRQEPSTEAAVVGKAAKGEIVTLVEQTSGEWWKVSTKDGEEGYAYSRYL”, the “soluble fraction (log2)” value worked out at 0.341.
Then “HMASDEVPGAGFKWREDVLLRVMEANGIDKSNRDDFVRHAVNFDDDDNNYLKKAEIEAAAAAWVESQSPA”, with -0.291; and “HMYAHLGKNLEVVINKALAQEDPEKKAGFAHHIAYYMKLAYSNWHKELVHDDAIRSELDTITGGELEFSN”, with 0.499.
Regarding “HMVSGVMAQQAIAVLVQQEDKHAPLSDQALAERLQVQGIDISRRTVAKYRQLLQIPSAATRR”, the “soluble fraction (log2)” value was -0.419.
Then “HMTRTEYMAQLEKYLKKLPHKEFQEAITFFNEYFDEAGPEKETAIMEELGSPKEAASELITNILNRHI”, with -0.149.
Next, “HMQNGNLVDVYLNWRGKYYAIKMFFPNSKMPRRSDVQDQIVKVYPDARVQSFQVSKYVPGQPFL”: -1.62.
As for “HMSTVTEVHYIAFKNGRIVDIKAALTGSAVTATSIKEQPKIENYNYTTSEVRDGILYHTYAPVA”, the “soluble fraction (log2)” value was -1.32.
With “HMEDYYKILGVSKDASIDDIKKSYRKLSLQNHPDRNKSPQASENFAKINSAYEVLSDQRKKRQYDMQQSM”, the “soluble fraction (log2)” value came to 0.0897.
As for “HMIPESVQGIEEFLATGALKGIGKKTAAAIVHKFGKDTLRIMEEEPERLAEVSGIGEKKAAAIGEAFALH”, the “soluble fraction (log2)” value amounted to 0.171.
Take “HMEAIYKKNKNLIHTVIRDNFPFLIDTADYEDAFQEGSIGLIRAIDRFDDGLEYKFSSYAYTAIRNQIA”: the “soluble fraction (log2)” value was -0.409.
Then “HMSEITQTLSMIGKEVTLEIPDEKDKTKTTEVKGIVTEASFKDGTGKVKVNGEYYSIAYITSIRDT”, with 0.335; and “HMAVGDMISKLRTAANMSQEQFAELFGVTRQSVQKWENSFSVPELEKLIKISKYFDVSLDALVLRSDARVT”, with -1.06; and “HMAGTRVWSENGQLYVTAAVSGRANVYNVLGKLNRSLTFSAGETKSVSVPAGIYVVSLNNGKAYKVAV”, with -1.67.
Consider “HMETVQTGTVKVSNSLNVRSGAGTNYSVLGSLSNGAKVEIVGTSGSWYKIKYGSGYGYVSKDYVTVS”, for which the “soluble fraction (log2)” value is -0.0163.
Then “HMVPPVVRTIYGAGGKMTATFLFPGGYEVDAASGAELPGKYRVESISLDQVVLTDKDGNRVPVGFSSVAPT”, with 0.0614; and “HMTGMEKFLTIPSIRESTAAFEREYLIHYLDENAWQVSKTAAAIGIERTTLYKKMKQLGIVPIEE”, with -2.07; and “HMVPFISVTPTSLSFAKGGESKTVDIEASGAFSVGKVPTGFNLEVVNGRITITADANTGAARNGSVEFILA”, with -0.0614.
Next, “HMDINEIILKVASEKKTFKTSDVLEALDNNYTKQHVSALISAMVKKGILVKAGSTAKSTYALPENASLL”: -0.264.
Then “HMKSVQIPQSITVKEFSQAIEVSVADVIKKLMSMGVMVSQNKEINVDTAILVGEEFGVTVNVA”, with 0.0996; and “HMDTLKDFISGVSIVFENKYSVGDNVTIGDFRGDVIELGMKTTKIRAYTGEVLIIPNHLVEKVINH”, with -1.51; and “HMSPTDKATVNVYALNVRTGPGTNYKVLGSVIKGTELQVLGSSGKWLKVKYGNREAYVAGWLVK”, with -1.62.
On to “HMEMLQENIRNLRKAKGWSQEELAIKLNVVRQTVSKWEKGLSVPDSQMLIRIADELDTTVAILLG”, for which the “soluble fraction (log2)” value was -0.246.
Then “HMLSDADLAAFREVFDLVDKDKSGAIEMEEVEELTKLLGLDLTRDEVELLVREIDKDGNGEVDFEEFLLVM”, with 0.0193; and “HMKPTVKVPNVVNLSLRNAQIQLQNYGLEVGSISYESSRFKNAVLRQSISEGSVVEKGTTINLVISDGL”, with -0.203; and “HMVPLGDLSKNERRAMELAATNGNVTTRALADDAQVTKRTASTTLRRLAKRGLLEWIGKGPSDPGQFYRIP”, with -0.123.
Turning to “HMPSSFLVKVTADALNIRSGPGVANRITGTIKDKGTYTIVDTKDDWGKLKSGVGWIHLGYTKRLD”, the “soluble fraction (log2)” value is -0.33.
Next, “HMEWGEADFVRLDEALATLRTLSPRQAEVVDLRFFSELSLEETAATLGLSLATVKRDWSVARLYLQRALS”: 0.0743.
Then “HMGKPTPASQVATRWLTGNLPESLPVAGPAPSFEALARTVSTDLHPRSVLQELVRLGVAEEANGVVTLRRQ”, with -0.00643; and “HMKYTEEIFNILSRGGFISANSVSSTVKRYYDALEEDFTEYYDYYKGIGFYLEAGNGYYLFTR”, with -3.29.
As to “HMPQPDVIEVRQGIVTGMRPDRRTGWLRDEEDAAGEPKSFSIDVITPKGRTPGKGAVVTYTLTNGKITEVK”, the “soluble fraction (log2)” value was -0.0415.
With “HMADFYEVLGVERNASSDQIKRAYRKLARELHPDVNLDPVAQNRFKEVTEAYEVLSDPNKRSNFDRG”, the “soluble fraction (log2)” value is 0.209.
Then “HMQTNEAIINQAVQAAEAQNITTRSQAVDALKANGMTEAQARQLAVQRGISYDQLINELFPME”, with -0.0275; and “HMGTPEQVVVSSVLKETNEIVLKWPADGFMAKYKMDNLNLNFEPVHGQGVMGYFIGSRLIKLELV”, with -0.251; and “HMNGLDSVLRNWARQTLASGGENLLGDLTDHVTRLIISEALIMTGGNRTRAAELLGLSRPTLLAKMDKLNL”, with -1.45.
“HMVAELAEMAENKNITSAQLALAWILKQSENIIPIPGTKRIKYLNENIEAVNVDLSKEDVENIENLLRKYP”: the “soluble fraction (log2)” value was -0.0297.
Consider “HMEMDITIQMRTLVEELNRASDAYYNGRGELMTDYEWDAKFDQLKQLESQSGVVLPDSPTHRV”, for which the “soluble fraction (log2)” value is -0.162.
Then “HMDLPREKRIEIGLTYIYGIGLKTSQKILAATGIDPNTRVKDLDETTVSKLREYIDHNYRVEGELRS”, with -0.504; and “HMHSFFGDNIKKLRTAKKMSQEQLADIFGITKAGISYWETGRSEPNFATVQKLADFFGVTTSDLLGEA”, with -0.194.
